Assays:
[1] = target: the molecule itself; test: yeast two-hybrid (Matchmaker Gold; growth on -L-T-H medium)
Method: (§1) Protein interaction assays in yeast were performed using the Matchmaker Gold Yeast Two-Hybrid System (Clontech) as described before (Park et al., 2014b). The coding sequences for bait proteins were cloned into the pGBKT7 vector, and the resulting vectors were transformed into the Y2HGold yeast strain. The coding sequences for prey proteins were cloned into the pGADT7 AD vector, and the resulting vectors were transformed into the Y187 yeast strain. After mating the two yeast strains expressing bait and prey proteins, diploid yeast cells were selected and grown on dropout medium without leucine and tryptophan. To assay protein-protein interactions, clones were grown on triple-dropout medium without leucine, tryptophan, and histidine for 3 d at 30° C. To block auto-activation, 3 mM 3-amino-1,2,4-triazole (3-AT) were added or adenine was removed from the triple-dropout medium. All primer sequences used for cloning can be found in Table 2.

[2] = target: the molecule itself; test: yeast two-hybrid, FIG. 5C
Method: as §1

Row | Protein | binding result [1] | binding result [2]
1 | EJ2 (Enhancer-of-Jointless-2, Solyc03g114840) SEP4-homolog MADS-box protein (other) MGRGRVELKRIENKINRQVTFAKRRNGLLKKAYELSVLCDAEVALIIFSNRGKLYEFCSTSSMVKTIEKYQRCSYATLEANQSVTDTQNNYHEYLRLKARVELLQRSQRNFLGEDLGTLSSKDLEQLENQLESSLKQIRSRKTQFMLDQLADLQQKEQMLAESNRLLRRKLEESVAGFPLRLCWEDGGDHQLMHQQNRLPNTEGFFQPLGLHSSSPHFGYNPVNTDEVNAAATAHNMNGFIHGWML | no binding | –
2 | J2 (Jointless-2, Solyc12g038510) SEP4-homolog MADS-box protein (other) MGRGRVELKRIENKINRQVTFAKRRNGLLKKAYELSILCDAEVALIIFSSRGKLYEFSSASSMMTTLEKYQQCSYASLDPMLPVSDTQMNYNEYVRLKARVELLQRSQRHILGEDLGTLNSKELEQLEHQLDASLKKVRSKKTQSMLDQLADLQEKEQMLEEANKQLKNKLEESAARIPLGLSWGNNGGQTMEYNRLPPQTTAQPFFQPLRLNSSSPQFGYNPNMGANDHEVNAATTAHNINGFIPGWML | – | binds

Reference: patent publication US20200299706A1 (COLD SPRING HARBOR LABORATORY, published 2020)
